This is an account of results in patent publication US9625458.

The chains are these.
B1: dipeptide BP K394C-NBD conjugate (receptor, E. coli, not shown: small tags and cut ends)
chain: MKTLVYCSEGSPEGFNPQLFTSGTTYDASSVPLYNRLVEFKIGTTEVIPGLAEKWEVSEDGKTYTFHLRKGVKWHDNKEFKPTRELNADDVVFSFDRQKNAQNPYHKVSGGSYEYFEGMGLPELISEVKKVDDNTVQFVLTRPEAPFLADLAMDFASILSKEYADAMMKAGTPEKLDLNPIGTGPFQLQQYQKDSRIRYKAFDGYWGTKPQIDTLVFSITPDASVRYAKLQKNECQVMPYPNPADIARMKQDKSINLMEMPGLNVGYLSYNVQKKPLDDVKVRQALTYAVNKDAIIKAVYQGAGVSAKNLIPPTMWGYNDDVQDYTYDPEKAKALLKEAGLEKGFSIDLWAMPVQRPYNPNARRMAEMIQADWAKVGVQAKIVTYEWGEYLKRACDGEHQTVMMGWTGDNGDPDNFFATLFSCAASEQGSNYSKWCYKPFEDLIQPARATDDHNKRVELYKQAQVVMHDQAPALIIAHSTVFEPVRKEVKGYVVDPLGKHHFENVSIE
modifications: NBD fluorophore conjugated to the thiol of Cys 394
B2: dipeptide BP S111C-Fluorescein conjugate (receptor, E. coli, not shown: small tags and cut ends)
chain: MKTLVYCSEGSPEGFNPQLFTSGTTYDASSVPLYNRLVEFKIGTTEVIPGLAEKWEVSEDGKTYTFHLRKGVKWHDNKEFKPTRELNADDVVFSFDRQKNAQNPYHKVSGGCYEYFEGMGLPELISEVKKVDDNTVQFVLTRPEAPFLADLAMDFASILSKEYADAMMKAGTPEKLDLNPIGTGPFQLQQYQKDSRIRYKAFDGYWGTKPQIDTLVFSITPDASVRYAKLQKNECQVMPYPNPADIARMKQDKSINLMEMPGLNVGYLSYNVQKKPLDDVKVRQALTYAVNKDAIIKAVYQGAGVSAKNLIPPTMWGYNDDVQDYTYDPEKAKALLKEAGLEKGFSIDLWAMPVQRPYNPNARRMAEMIQADWAKVGVQAKIVTYEWGEYLKRAKDGEHQTVMMGWTGDNGDPDNFFATLFSCAASEQGSNYSKWCYKPFEDLIQPARATDDHNKRVELYKQAQVVMHDQAPALIIAHSTVFEPVRKEVKGYVVDPLGKHHFENVSIE
modifications: fluorescein (5-iodoacetamidofluorescein) conjugated to the thiol of Cys 111
B3: dipeptide BP S111C-JPW4042 conjugate (receptor, E. coli, not shown: small tags and cut ends)
chain: MKTLVYCSEGSPEGFNPQLFTSGTTYDASSVPLYNRLVEFKIGTTEVIPGLAEKWEVSEDGKTYTFHLRKGVKWHDNKEFKPTRELNADDVVFSFDRQKNAQNPYHKVSGGCYEYFEGMGLPELISEVKKVDDNTVQFVLTRPEAPFLADLAMDFASILSKEYADAMMKAGTPEKLDLNPIGTGPFQLQQYQKDSRIRYKAFDGYWGTKPQIDTLVFSITPDASVRYAKLQKNECQVMPYPNPADIARMKQDKSINLMEMPGLNVGYLSYNVQKKPLDDVKVRQALTYAVNKDAIIKAVYQGAGVSAKNLIPPTMWGYNDDVQDYTYDPEKAKALLKEAGLEKGFSIDLWAMPVQRPYNPNARRMAEMIQADWAKVGVQAKIVTYEWGEYLKRAKDGEHQTVMMGWTGDNGDPDNFFATLFSCAASEQGSNYSKWCYKPFEDLIQPARATDDHNKRVELYKQAQVVMHDQAPALIIAHSTVFEPVRKEVKGYVVDPLGKHHFENVSIE
modifications: JPW4042 fluorophore conjugated to the thiol of Cys 111
B4: dipeptide BP D450C-JPW4039 conjugate (receptor, E. coli, not shown: small tags and cut ends)
chain: MKTLVYCSEGSPEGFNPQLFTSGTTYDASSVPLYNRLVEFKIGTTEVIPGLAEKWEVSEDGKTYTFHLRKGVKWHDNKEFKPTRELNADDVVFSFDRQKNAQNPYHKVSGGSYEYFEGMGLPELISEVKKVDDNTVQFVLTRPEAPFLADLAMDFASILSKEYADAMMKAGTPEKLDLNPIGTGPFQLQQYQKDSRIRYKAFDGYWGTKPQIDTLVFSITPDASVRYAKLQKNECQVMPYPNPADIARMKQDKSINLMEMPGLNVGYLSYNVQKKPLDDVKVRQALTYAVNKDAIIKAVYQGAGVSAKNLIPPTMWGYNDDVQDYTYDPEKAKALLKEAGLEKGFSIDLWAMPVQRPYNPNARRMAEMIQADWAKVGVQAKIVTYEWGEYLKRAKDGEHQTVMMGWTGDNGDPDNFFATLFSCAASEQGSNYSKWCYKPFEDLIQPARATCDHNKRVELYKQAQVVMHDQAPALIIAHSTVFEPVRKEVKGYVVDPLGKHHFENVSIE
modifications: JPW4039 fluorophore conjugated to the thiol of Cys 450
B5: dipeptide BP R141C-Fluorescein conjugate (receptor, E. coli, not shown: small tags and cut ends)
chain: MKTLVYCSEGSPEGFNPQLFTSGTTYDASSVPLYNRLVEFKIGTTEVIPGLAEKWEVSEDGKTYTFHLRKGVKWHDNKEFKPTRELNADDVVFSFDRQKNAQNPYHKVSGGSYEYFEGMGLPELISEVKKVDDNTVQFVLTCPEAPFLADLAMDFASILSKEYADAMMKAGTPEKLDLNPIGTGPFQLQQYQKDSRIRYKAFDGYWGTKPQIDTLVFSITPDASVRYAKLQKNECQVMPYPNPADIARMKQDKSINLMEMPGLNVGYLSYNVQKKPLDDVKVRQALTYAVNKDAIIKAVYQGAGVSAKNLIPPTMWGYNDDVQDYTYDPEKAKALLKEAGLEKGFSIDLWAMPVQRPYNPNARRMAEMIQADWAKVGVQAKIVTYEWGEYLKRAKDGEHQTVMMGWTGDNGDPDNFFATLFSCAASEQGSNYSKWCYKPFEDLIQPARATDDHNKRVELYKQAQVVMHDQAPALIIAHSTVFEPVRKEVKGYVVDPLGKHHFENVSIE
modifications: fluorescein (5-iodoacetamidofluorescein) conjugated to the thiol of Cys 141
B6: dipeptide BP T44C-NBD conjugate (receptor, E. coli, not shown: small tags and cut ends)
chain: MKTLVYCSEGSPEGFNPQLFTSGTTYDASSVPLYNRLVEFKIGTCEVIPGLAEKWEVSEDGKTYTFHLRKGVKWHDNKEFKPTRELNADDVVFSFDRQKNAQNPYHKVSGGSYEYFEGMGLPELISEVKKVDDNTVQFVLTRPEAPFLADLAMDFASILSKEYADAMMKAGTPEKLDLNPIGTGPFQLQQYQKDSRIRYKAFDGYWGTKPQIDTLVFSITPDASVRYAKLQKNECQVMPYPNPADIARMKQDKSINLMEMPGLNVGYLSYNVQKKPLDDVKVRQALTYAVNKDAIIKAVYQGAGVSAKNLIPPTMWGYNDDVQDYTYDPEKAKALLKEAGLEKGFSIDLWAMPVQRPYNPNARRMAEMIQADWAKVGVQAKIVTYEWGEYLKRAKDGEHQTVMMGWTGDNGDPDNFFATLFSCAASEQGSNYSKWCYKPFEDLIQPARATDDHNKRVELYKQAQVVMHDQAPALIIAHSTVFEPVRKEVKGYVVDPLGKHHFENVSIE
modifications: NBD fluorophore conjugated to the thiol of Cys 44
B7: dipeptide BP R141C-Acrylodan conjugate (receptor, E. coli, not shown: small tags and cut ends)
chain: MKTLVYCSEGSPEGFNPQLFTSGTTYDASSVPLYNRLVEFKIGTTEVIPGLAEKWEVSEDGKTYTFHLRKGVKWHDNKEFKPTRELNADDVVFSFDRQKNAQNPYHKVSGGSYEYFEGMGLPELISEVKKVDDNTVQFVLTCPEAPFLADLAMDFASILSKEYADAMMKAGTPEKLDLNPIGTGPFQLQQYQKDSRIRYKAFDGYWGTKPQIDTLVFSITPDASVRYAKLQKNECQVMPYPNPADIARMKQDKSINLMEMPGLNVGYLSYNVQKKPLDDVKVRQALTYAVNKDAIIKAVYQGAGVSAKNLIPPTMWGYNDDVQDYTYDPEKAKALLKEAGLEKGFSIDLWAMPVQRPYNPNARRMAEMIQADWAKVGVQAKIVTYEWGEYLKRAKDGEHQTVMMGWTGDNGDPDNFFATLFSCAASEQGSNYSKWCYKPFEDLIQPARATDDHNKRVELYKQAQVVMHDQAPALIIAHSTVFEPVRKEVKGYVVDPLGKHHFENVSIE
modifications: acrylodan fluorophore conjugated to the thiol of Cys 141
B8: dipeptide BP T44C-Fluorescein conjugate (receptor, E. coli, not shown: small tags and cut ends)
chain: MKTLVYCSEGSPEGFNPQLFTSGTTYDASSVPLYNRLVEFKIGTCEVIPGLAEKWEVSEDGKTYTFHLRKGVKWHDNKEFKPTRELNADDVVFSFDRQKNAQNPYHKVSGGSYEYFEGMGLPELISEVKKVDDNTVQFVLTRPEAPFLADLAMDFASILSKEYADAMMKAGTPEKLDLNPIGTGPFQLQQYQKDSRIRYKAFDGYWGTKPQIDTLVFSITPDASVRYAKLQKNECQVMPYPNPADIARMKQDKSINLMEMPGLNVGYLSYNVQKKPLDDVKVRQALTYAVNKDAIIKAVYQGAGVSAKNLIPPTMWGYNDDVQDYTYDPEKAKALLKEAGLEKGFSIDLWAMPVQRPYNPNARRMAEMIQADWAKVGVQAKIVTYEWGEYLKRAKDGEHQTVMMGWTGDNGDPDNFFATLFSCAASEQGSNYSKWCYKPFEDLIQPARATDDHNKRVELYKQAQVVMHDQAPALIIAHSTVFEPVRKEVKGYVVDPLGKHHFENVSIE
modifications: fluorescein (5-iodoacetamidofluorescein) conjugated to the thiol of Cys 44
B9: dipeptide BP S111C-Acrylodan conjugate (receptor, E. coli, not shown: small tags and cut ends)
chain: MKTLVYCSEGSPEGFNPQLFTSGTTYDASSVPLYNRLVEFKIGTTEVIPGLAEKWEVSEDGKTYTFHLRKGVKWHDNKEFKPTRELNADDVVFSFDRQKNAQNPYHKVSGGCYEYFEGMGLPELISEVKKVDDNTVQFVLTRPEAPFLADLAMDFASILSKEYADAMMKAGTPEKLDLNPIGTGPFQLQQYQKDSRIRYKAFDGYWGTKPQIDTLVFSITPDASVRYAKLQKNECQVMPYPNPADIARMKQDKSINLMEMPGLNVGYLSYNVQKKPLDDVKVRQALTYAVNKDAIIKAVYQGAGVSAKNLIPPTMWGYNDDVQDYTYDPEKAKALLKEAGLEKGFSIDLWAMPVQRPYNPNARRMAEMIQADWAKVGVQAKIVTYEWGEYLKRAKDGEHQTVMMGWTGDNGDPDNFFATLFSCAASEQGSNYSKWCYKPFEDLIQPARATDDHNKRVELYKQAQVVMHDQAPALIIAHSTVFEPVRKEVKGYVVDPLGKHHFENVSIE
modifications: acrylodan fluorophore conjugated to the thiol of Cys 111
B10: dipeptide BP S111C-JPW4039 conjugate (receptor, E. coli, not shown: small tags and cut ends)
chain: MKTLVYCSEGSPEGFNPQLFTSGTTYDASSVPLYNRLVEFKIGTTEVIPGLAEKWEVSEDGKTYTFHLRKGVKWHDNKEFKPTRELNADDVVFSFDRQKNAQNPYHKVSGGCYEYFEGMGLPELISEVKKVDDNTVQFVLTRPEAPFLADLAMDFASILSKEYADAMMKAGTPEKLDLNPIGTGPFQLQQYQKDSRIRYKAFDGYWGTKPQIDTLVFSITPDASVRYAKLQKNECQVMPYPNPADIARMKQDKSINLMEMPGLNVGYLSYNVQKKPLDDVKVRQALTYAVNKDAIIKAVYQGAGVSAKNLIPPTMWGYNDDVQDYTYDPEKAKALLKEAGLEKGFSIDLWAMPVQRPYNPNARRMAEMIQADWAKVGVQAKIVTYEWGEYLKRAKDGEHQTVMMGWTGDNGDPDNFFATLFSCAASEQGSNYSKWCYKPFEDLIQPARATDDHNKRVELYKQAQVVMHDQAPALIIAHSTVFEPVRKEVKGYVVDPLGKHHFENVSIE
modifications: JPW4039 fluorophore conjugated to the thiol of Cys 111
B11: dipeptide BP W315C-JPW4039 conjugate (receptor, E. coli, not shown: small tags and cut ends)
chain: MKTLVYCSEGSPEGFNPQLFTSGTTYDASSVPLYNRLVEFKIGTTEVIPGLAEKWEVSEDGKTYTFHLRKGVKWHDNKEFKPTRELNADDVVFSFDRQKNAQNPYHKVSGGSYEYFEGMGLPELISEVKKVDDNTVQFVLTRPEAPFLADLAMDFASILSKEYADAMMKAGTPEKLDLNPIGTGPFQLQQYQKDSRIRYKAFDGYWGTKPQIDTLVFSITPDASVRYAKLQKNECQVMPYPNPADIARMKQDKSINLMEMPGLNVGYLSYNVQKKPLDDVKVRQALTYAVNKDAIIKAVYQGAGVSAKNLIPPTMCGYNDDVQDYTYDPEKAKALLKEAGLEKGFSIDLWAMPVQRPYNPNARRMAEMIQADWAKVGVQAKIVTYEWGEYLKRAKDGEHQTVMMGWTGDNGDPDNFFATLFSCAASEQGSNYSKWCYKPFEDLIQPARATDDHNKRVELYKQAQVVMHDQAPALIIAHSTVFEPVRKEVKGYVVDPLGKHHFENVSIE
modifications: JPW4039 fluorophore conjugated to the thiol of Cys 315

The assay has as its target Gly-Leu dipeptide. The experiment in a line: fluorimetric titration of the fluorophore conjugate with ligand, fit to binding isotherm.
In turn, B1 showed a Kd of 0.012 µM.
On to B2, for which the Kd came to 2.6 µM.
The molecule B3 had a Kd of 15.8 µM.
Next, B4: 0.91 µM.
Next, B5: 38 µM; B6: 0.006 µM; B7: 2.3 µM.
The figure for B8 is 0.64 µM.
As to B9, the Kd is 4.8 µM.
With B10, the Kd worked out at 34 µM.
Next, B11: 1 µM.
